B1: recombinant His-tagged ABL1 (protein)
chain: SPNYDKWEMERTDITMKHKLGGGQYGEVYEGVWKKYSLTVAVKTLKEDTMEVEEFLKEAAVMKEIKHPNLVQLLGVCTREPPFYIITEFMTYGNLLDYLRECNRQEVNAVVLLYMATQISSAMEYLEKKNFIHRDLAARNCLVGENHLVKVADFGLSRLMTGDTYTAHAGAKFPIKWTAPESLAYNKFSIKSDVWAFGVLLWEIATYGMSPYPGIDLSQVYELLEKDYRMERPEGCPEKVYELMRACWQWNPSDRPSFAEIHQAFETMFQESSISDEVEKELGK
Question: How did the “in vitro kinase assay (tyrosine phosphorylation)” value (3×-FLAG-RNF213) turn out when B1 was run?
Answer: His-ABL1 phosphorylated WT-RNF213, but not RNF213^Y1275F in a time- and ABL1-concentration-dependent manner

Question: What about the “in vitro kinase assay (tyrosine phosphorylation)” value (3×-FLAG-RNF213^Y1275F) of the same protein?
Answer: His-ABL1 phosphorylated WT-RNF213, but not RNF213^Y1275F

From patent publication US20250025478

Sequence of 3×-FLAG-RNF213 (chain, as listed by the source): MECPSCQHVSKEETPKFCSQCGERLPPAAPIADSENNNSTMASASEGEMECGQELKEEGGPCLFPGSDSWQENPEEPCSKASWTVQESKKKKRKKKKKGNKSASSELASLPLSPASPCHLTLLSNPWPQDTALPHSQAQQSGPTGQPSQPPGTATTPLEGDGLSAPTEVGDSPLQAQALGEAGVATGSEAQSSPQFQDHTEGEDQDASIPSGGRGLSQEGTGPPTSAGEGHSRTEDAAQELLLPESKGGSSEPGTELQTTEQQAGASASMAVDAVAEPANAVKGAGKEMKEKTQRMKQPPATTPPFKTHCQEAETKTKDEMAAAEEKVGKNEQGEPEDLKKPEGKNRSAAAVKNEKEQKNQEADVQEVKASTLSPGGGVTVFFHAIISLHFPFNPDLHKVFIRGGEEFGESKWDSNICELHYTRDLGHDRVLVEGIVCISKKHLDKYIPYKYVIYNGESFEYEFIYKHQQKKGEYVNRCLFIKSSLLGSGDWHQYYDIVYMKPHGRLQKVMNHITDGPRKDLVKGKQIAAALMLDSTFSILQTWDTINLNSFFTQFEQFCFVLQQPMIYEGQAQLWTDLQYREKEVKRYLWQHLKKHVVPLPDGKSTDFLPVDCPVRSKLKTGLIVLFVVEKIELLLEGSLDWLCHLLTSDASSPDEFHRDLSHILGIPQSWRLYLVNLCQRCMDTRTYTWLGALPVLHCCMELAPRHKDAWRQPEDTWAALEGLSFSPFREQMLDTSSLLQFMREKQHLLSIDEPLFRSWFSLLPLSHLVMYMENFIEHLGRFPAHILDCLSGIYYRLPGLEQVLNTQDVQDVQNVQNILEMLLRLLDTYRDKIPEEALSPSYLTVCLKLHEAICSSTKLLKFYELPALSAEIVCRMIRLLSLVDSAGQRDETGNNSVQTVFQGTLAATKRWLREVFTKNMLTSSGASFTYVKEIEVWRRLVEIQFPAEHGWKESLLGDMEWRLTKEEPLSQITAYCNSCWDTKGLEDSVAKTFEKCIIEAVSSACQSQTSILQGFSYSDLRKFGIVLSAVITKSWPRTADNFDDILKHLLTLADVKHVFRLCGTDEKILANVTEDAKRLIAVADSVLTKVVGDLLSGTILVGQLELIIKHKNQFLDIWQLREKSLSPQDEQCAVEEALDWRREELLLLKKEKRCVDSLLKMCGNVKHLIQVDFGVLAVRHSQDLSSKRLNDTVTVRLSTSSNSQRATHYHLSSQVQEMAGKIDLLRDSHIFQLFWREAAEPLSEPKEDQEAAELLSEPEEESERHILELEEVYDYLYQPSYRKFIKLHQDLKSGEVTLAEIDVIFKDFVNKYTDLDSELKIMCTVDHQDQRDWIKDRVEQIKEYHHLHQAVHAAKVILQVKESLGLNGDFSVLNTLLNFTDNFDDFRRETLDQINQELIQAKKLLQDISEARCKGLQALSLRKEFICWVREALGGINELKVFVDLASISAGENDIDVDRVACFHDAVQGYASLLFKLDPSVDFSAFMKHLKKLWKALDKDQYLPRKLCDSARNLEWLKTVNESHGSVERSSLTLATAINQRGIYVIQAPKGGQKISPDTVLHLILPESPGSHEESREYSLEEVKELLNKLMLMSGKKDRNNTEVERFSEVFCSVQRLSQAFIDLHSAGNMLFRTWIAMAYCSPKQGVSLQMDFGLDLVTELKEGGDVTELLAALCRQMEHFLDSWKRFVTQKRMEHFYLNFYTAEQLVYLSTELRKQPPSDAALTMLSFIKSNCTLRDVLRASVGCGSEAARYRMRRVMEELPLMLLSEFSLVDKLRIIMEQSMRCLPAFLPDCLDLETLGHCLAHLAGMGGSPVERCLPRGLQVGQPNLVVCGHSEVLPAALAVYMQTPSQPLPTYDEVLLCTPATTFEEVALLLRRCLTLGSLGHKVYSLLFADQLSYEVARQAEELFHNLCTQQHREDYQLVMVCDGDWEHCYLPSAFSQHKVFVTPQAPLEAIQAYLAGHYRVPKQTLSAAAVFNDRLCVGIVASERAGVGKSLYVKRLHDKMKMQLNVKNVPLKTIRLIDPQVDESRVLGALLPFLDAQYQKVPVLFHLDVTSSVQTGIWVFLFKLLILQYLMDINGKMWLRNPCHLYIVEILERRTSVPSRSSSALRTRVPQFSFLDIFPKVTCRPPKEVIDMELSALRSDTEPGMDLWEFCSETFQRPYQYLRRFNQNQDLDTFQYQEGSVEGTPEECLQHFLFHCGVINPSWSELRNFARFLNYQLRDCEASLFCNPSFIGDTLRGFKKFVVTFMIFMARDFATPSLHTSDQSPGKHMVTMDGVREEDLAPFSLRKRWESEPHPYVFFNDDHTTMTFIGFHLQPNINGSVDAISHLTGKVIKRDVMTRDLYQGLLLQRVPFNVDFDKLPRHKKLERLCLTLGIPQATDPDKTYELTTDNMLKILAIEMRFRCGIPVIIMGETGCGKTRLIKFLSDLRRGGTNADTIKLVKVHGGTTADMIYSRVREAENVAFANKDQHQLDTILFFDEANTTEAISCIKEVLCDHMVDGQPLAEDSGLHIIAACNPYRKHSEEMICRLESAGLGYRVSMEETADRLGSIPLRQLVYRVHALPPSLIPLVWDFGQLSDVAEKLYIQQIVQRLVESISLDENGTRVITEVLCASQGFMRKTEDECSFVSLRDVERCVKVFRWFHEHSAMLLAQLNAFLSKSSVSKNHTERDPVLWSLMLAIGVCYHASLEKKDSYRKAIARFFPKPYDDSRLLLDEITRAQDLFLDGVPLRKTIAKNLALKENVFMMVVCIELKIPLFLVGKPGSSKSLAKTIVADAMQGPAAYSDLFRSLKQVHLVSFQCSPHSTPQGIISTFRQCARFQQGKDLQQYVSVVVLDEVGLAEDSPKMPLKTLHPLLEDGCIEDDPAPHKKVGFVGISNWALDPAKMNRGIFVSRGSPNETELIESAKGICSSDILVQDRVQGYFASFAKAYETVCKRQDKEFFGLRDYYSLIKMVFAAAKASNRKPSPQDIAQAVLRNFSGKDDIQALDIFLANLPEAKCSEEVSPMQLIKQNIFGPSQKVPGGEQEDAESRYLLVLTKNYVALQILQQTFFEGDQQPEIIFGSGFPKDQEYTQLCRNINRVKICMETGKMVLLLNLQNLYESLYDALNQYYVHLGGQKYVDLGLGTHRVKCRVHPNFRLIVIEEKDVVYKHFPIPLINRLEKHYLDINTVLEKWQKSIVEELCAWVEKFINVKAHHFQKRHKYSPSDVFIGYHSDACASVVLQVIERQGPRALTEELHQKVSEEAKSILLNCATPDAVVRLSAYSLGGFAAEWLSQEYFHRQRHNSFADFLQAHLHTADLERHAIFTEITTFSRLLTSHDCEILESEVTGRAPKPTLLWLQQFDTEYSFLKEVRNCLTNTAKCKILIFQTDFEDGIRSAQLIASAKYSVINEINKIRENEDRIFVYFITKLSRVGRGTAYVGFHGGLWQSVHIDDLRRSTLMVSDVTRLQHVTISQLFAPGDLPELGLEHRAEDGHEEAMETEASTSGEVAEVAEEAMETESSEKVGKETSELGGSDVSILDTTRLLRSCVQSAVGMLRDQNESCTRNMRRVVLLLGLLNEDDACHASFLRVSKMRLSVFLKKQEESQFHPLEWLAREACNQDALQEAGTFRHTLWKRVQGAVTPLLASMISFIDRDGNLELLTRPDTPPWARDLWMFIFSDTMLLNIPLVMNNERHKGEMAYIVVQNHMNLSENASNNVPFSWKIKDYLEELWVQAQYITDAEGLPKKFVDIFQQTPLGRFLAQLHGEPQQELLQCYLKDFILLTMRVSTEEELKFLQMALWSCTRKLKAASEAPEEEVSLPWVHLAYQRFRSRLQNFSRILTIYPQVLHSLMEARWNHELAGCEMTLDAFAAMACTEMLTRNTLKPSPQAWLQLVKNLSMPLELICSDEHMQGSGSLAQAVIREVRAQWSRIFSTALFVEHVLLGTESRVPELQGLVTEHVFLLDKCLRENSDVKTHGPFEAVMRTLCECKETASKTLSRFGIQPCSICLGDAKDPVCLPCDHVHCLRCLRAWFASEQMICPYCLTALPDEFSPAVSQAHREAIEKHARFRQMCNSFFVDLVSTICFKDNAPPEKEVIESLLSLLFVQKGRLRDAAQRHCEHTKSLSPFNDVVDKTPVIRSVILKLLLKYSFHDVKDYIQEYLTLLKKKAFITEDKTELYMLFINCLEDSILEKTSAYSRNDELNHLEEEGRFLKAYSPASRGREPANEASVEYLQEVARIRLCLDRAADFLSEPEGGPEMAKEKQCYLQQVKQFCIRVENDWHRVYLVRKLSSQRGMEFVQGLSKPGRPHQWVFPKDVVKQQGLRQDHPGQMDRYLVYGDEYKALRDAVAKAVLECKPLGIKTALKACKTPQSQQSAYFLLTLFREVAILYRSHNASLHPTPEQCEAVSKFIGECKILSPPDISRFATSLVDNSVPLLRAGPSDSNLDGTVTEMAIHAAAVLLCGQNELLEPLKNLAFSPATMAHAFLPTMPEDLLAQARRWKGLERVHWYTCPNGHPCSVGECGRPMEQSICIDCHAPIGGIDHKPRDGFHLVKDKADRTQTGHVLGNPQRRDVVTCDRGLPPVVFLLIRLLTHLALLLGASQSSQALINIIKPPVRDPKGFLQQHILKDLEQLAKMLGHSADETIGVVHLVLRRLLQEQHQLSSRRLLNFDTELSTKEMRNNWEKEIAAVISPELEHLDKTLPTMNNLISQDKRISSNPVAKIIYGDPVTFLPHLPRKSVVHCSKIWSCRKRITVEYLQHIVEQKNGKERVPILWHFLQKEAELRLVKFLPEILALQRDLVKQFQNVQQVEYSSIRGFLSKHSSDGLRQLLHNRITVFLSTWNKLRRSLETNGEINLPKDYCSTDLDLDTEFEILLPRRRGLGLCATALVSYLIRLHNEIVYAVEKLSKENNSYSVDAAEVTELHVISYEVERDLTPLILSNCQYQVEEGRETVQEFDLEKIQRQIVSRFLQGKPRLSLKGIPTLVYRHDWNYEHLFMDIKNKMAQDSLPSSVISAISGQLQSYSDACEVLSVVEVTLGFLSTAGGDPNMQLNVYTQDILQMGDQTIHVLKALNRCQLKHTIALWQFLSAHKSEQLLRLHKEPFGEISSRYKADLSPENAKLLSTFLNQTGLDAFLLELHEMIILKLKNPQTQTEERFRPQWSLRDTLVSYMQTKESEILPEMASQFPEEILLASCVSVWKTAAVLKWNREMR
